This passage reports fraction unconjugated results from article PMC8926328.

The target of this assay is HBsAg-SpyCatcher VLPs (hepatitis B virus). Nature of the assay: SDS-PAGE of the covalent conjugate.

Substance “RBD-SpyTag (from UniProt P0DTC2) (domain or fragment)” displayed a fraction unconjugated below 20%.
